{
  "source": "the RNAGym collection of RNA variant scans (doi:10.7554/elife.80360)",
  "parents": {"B1": {"name": "Twister Ribozyme (parent)", "chain": "AACACUGCCAAUGCCGGUCCCAAGCCCGGAUAAAAGUGGAGGGGGCGG"}},
  "data": [
    {"variants_of": "B1", "assay": "self-cleavage, relative activity (ratio to wild type); higher = more cleavage; co-transcriptional", "values": [
      {"variant": "AACACUGCCAAUGCCGGUCCCAAGCCCGGAUAGAAGUGGAGGAGGCGG", "self-cleavage": 0.268},
      {"variant": "AACACUGCCAAUGCCGGUCCCAAGCCCGGAUAGAAGUGGAGGCGGCGG", "self-cleavage": 0.144},
      {"variant": "AACACUGCCAAUGCCGGUCCCAAGCCCGGAUAGAAGUGGAGGGCGCGG", "self-cleavage": 0.752},
      {"variant": "AACACUGCCAAUGCCGGUCCCAAGCCCGGAUAGAAGUGGAGGGUGCGG", "self-cleavage": 0.86},
      {"variant": "AACACUGCCAAUGCCGGUCCCAAGCCCGGAUAGAAGUGGAGGGGACGG", "self-cleavage": 0.803},
      {"variant": "AACACUGCCAAUGCCGGUCCCAAGCCCGGAUAGAAGUGGAGGGGUCGG", "self-cleavage": 0.782},
      {"variant": "AACACUGCCAAUGCCGGUCCCAAGCCCGGAUAGAAGUGGAGGGGGCAG", "self-cleavage": 0.75},
      {"variant": "AACACUGCCAAUGCCGGUCCCAAGCCCGGAUAGAAGUGGAGGGGGCUG", "self-cleavage": 0.927},
      {"variant": "AACACUGCCAAUGCCGGUCCCAAGCCCGGAUAGAAGUGGAGGGGGCGA", "self-cleavage": 0.856},
      {"variant": "AACACUGCCAAUGCCGGUCCCAAGCCCGGAUAGAAGUGGAGGGGGCGC", "self-cleavage": 1.07},
      {"variant": "AACACUGCCAAUGCCGGUCCCAAGCCCGGAUAGAAGUGGAGGGGGCGU", "self-cleavage": 0.903},
      {"variant": "AACACUGCCAAUGCCGGUCCCAAGCCCGGAUAGAAGAGGAGGGGGCGG", "self-cleavage": 0.814},
      {"variant": "AACACUGCCAAUGCCGGUCCCAAGCCCGGAUAGAAGCGGAGGGGGCGG", "self-cleavage": 0.532},
      {"variant": "AACACUGCCAAUGCCGGUCCCAAGCCCGGAUAUAAGUGGAGGGGGCGG", "self-cleavage": 0.998},
      {"variant": "AACACUGCCAAUGCCGGUCCCAAGCCCGGAUAUGAGUGGAGGGGGCGG", "self-cleavage": 0.76},
      {"variant": "AACACUGCCAAUGCCGGUCCCAAGCCCGGAUAUAAGUGGGGGGGGCGG", "self-cleavage": 0.154},
      {"variant": "AACACUGCCAAUGCCGGUCCCAAGCCCGGAUAUAACUGGAGGGGGCGG", "self-cleavage": 0.174},
      {"variant": "AACACUGCCAAUGCCGGUCCCAAGCCCGGAUAUAAGUAGAGGGGGCGG", "self-cleavage": 0.946},
      {"variant": "AACACUGCCAAUGCCGGUCCCAAGCCCGGAUAUAAGUCGAGGGGGCGG", "self-cleavage": 0.77},
      {"variant": "AACACUGCCAAUGCCGGUCCCAAGCCCGGAUAUAAGUGAAGGGGGCGG", "self-cleavage": 0.512},
      {"variant": "AACACUGCCAAUGCCGGUCCCAAGCCCGGAUAUAAGUGCAGGGGGCGG", "self-cleavage": 0.0973},
      {"variant": "AACACUGCCAAUGCCGGUCCCAAGCCCGGAUAUAAGUGUAGGGGGCGG", "self-cleavage": 0.162},
      {"variant": "AACACUGCCAAUGCCGGUCCCAAGCCCGGAUAUAAGUGGAAGGGGCGG", "self-cleavage": 0.472},
      {"variant": "AACACUGCCAAUGCCGGUCCCAAGCCCGGAUAUAAGUGGACGGGGCGG", "self-cleavage": 0.18},
      {"variant": "AACACUGCCAAUGCCGGUCCCAAGCCCGGAUAUAAGUGGAUGGGGCGG", "self-cleavage": 0.489},
      {"variant": "AACACUGCCAAUGCCGGUCCCAAGCCCGGAUAUAAGUGGAGAGGGCGG", "self-cleavage": 0.283},
      {"variant": "AACACUGCCAAUGCCGGUCCCAAGCCCGGAUAUAAGUGGAGCGGGCGG", "self-cleavage": 0.323},
      {"variant": "AACACUGCCAAUGCCGGUCCCAAGCCCGGAUAUAAGUGGAGUGGGCGG", "self-cleavage": 0.244},
      {"variant": "AACACUGCCAAUGCCGGUCCCAAGCCCGGAUAUAAGUGGAGGAGGCGG", "self-cleavage": 0.233},
      {"variant": "AACACUGCCAAUGCCGGUCCCAAGCCCGGAUAUAAGUGGAGGCGGCGG", "self-cleavage": 0.101},
      {"variant": "AACACUGCCAAUGCCGGUCCCAAGCCCGGAUAUAAGUGGAGGGUGCGG", "self-cleavage": 0.897},
      {"variant": "AACACUGCCAAUGCCGGUCCCAAGCCCGGAUAUAAGUGGAGGGGACGG", "self-cleavage": 0.884},
      {"variant": "AACACUGCCAAUGCCGGUCCCAAGCCCGGAUAUAAGUGGAGGGGUCGG", "self-cleavage": 0.843},
      {"variant": "AACACUGCCAAUGCCGGUCCCAAGCCCGGAUAUAAGUGGAGGGGGCCG", "self-cleavage": 0.439},
      {"variant": "AACACUGCCAAUGCCGGUCCCAAGCCCGGAUAUAAGUGGAGGGGGCGU", "self-cleavage": 0.931},
      {"variant": "AACACUGCCAAUGCCGGUCCCAAGCCCGGAUAUAAGCGGAGGGGGCGG", "self-cleavage": 0.379},
      {"variant": "AACACUGCCAAUGCCGGUCCCAAGCCCGGAUAACCGUGGAGGGGGCGG", "self-cleavage": 0.694},
      {"variant": "AACACUGCCAAUGCCGGUCCCAAGCCCGGAUAACAGUGGCGGGGGCGG", "self-cleavage": 0.122},
      {"variant": "AACACUGCCAAUGCCGGUCCCAAGCCCGGAUAACAGUGGUGGGGGCGG", "self-cleavage": 0.0943},
      {"variant": "AACACUGCCAAUGCCGGUCCCAAGCCCGGAUAACAGUGGAGGGGGAGG", "self-cleavage": 0.142},
      {"variant": "AACACUGCCAAUGCCGGUCCCAAGCCCGGAUAACAAUGGAGGGGGCGG", "self-cleavage": 0.0949},
      {"variant": "AACACUGCCAAUGCCGGUCCCAAGCCCGGAUAACACUGGAGGGGGCGG", "self-cleavage": 0.104},
      {"variant": "AACACUGCCAAUGCCGGUCCCAAGCCCGGAUAACAUUGGAGGGGGCGG", "self-cleavage": 0.084},
      {"variant": "AACACUGCCAAUGCCGGUCCCAAGCCCGGAUAACAGUUGAGGGGGCGG", "self-cleavage": 0.138},
      {"variant": "AACACUGCCAAUGCCGGUCCCAAGCCCGGAUAACAGUGAAGGGGGCGG", "self-cleavage": 0.155},
      {"variant": "AACACUGCCAAUGCCGGUCCCAAGCCCGGAUAACAGUGCAGGGGGCGG", "self-cleavage": 0.0839},
      {"variant": "AACACUGCCAAUGCCGGUCCCAAGCCCGGAUAACAGUGGAAGGGGCGG", "self-cleavage": 0.133},
      {"variant": "AACACUGCCAAUGCCGGUCCCAAGCCCGGAUAACAGUGGAGGGAGCGG", "self-cleavage": 0.385},
      {"variant": "AACACUGCCAAUGCCGGUCCCAAGCCCGGAUAACAGUGGAGGGCGCGG", "self-cleavage": 0.156},
      {"variant": "AACACUGCCAAUGCCGGUCCCAAGCCCGGAUAACAGUGGAGGGUGCGG", "self-cleavage": 0.165},
      {"variant": "AACACUGCCAAUGCCGGUCCCAAGCCCGGAUAACAGUGGAGGGGGCCG", "self-cleavage": 0.177},
      {"variant": "AACACUGCCAAUGCCGGUCCCAAGCCCGGAUAACAGUGGAGGGGGCGA", "self-cleavage": 0.187},
      {"variant": "AACACUGCCAAUGCCGGUCCCAAGCCCGGAUAAGCGUGGAGGGGGCGG", "self-cleavage": 0.742},
      {"variant": "AACACUGCCAAUGCCGGUCCCAAGCCCGGAUAAGAGUGGCGGGGGCGG", "self-cleavage": 0.198}
    ]}
  ]
}
